# Patent US20030092613A1, “Alpha7 nicotinic receptor peptides as ligands for beta amyloid peptides” (priority 2000, published 2003)
# Target: β-amyloid1-42 (UniProt P05067)
# Assay: cell-based or functional assay
binder,measurement,value
"Ac-SERFYECCKEP-NH2 (also: cyclic, bridge not given here) [cyclic peptide (Ac)…-amide]",ACh rel % Inh @ 100 µM,81%
same,Inh ACh rel IC50,316 nM
